{"source": "patent US7186551B1", "about": "“3′-phosphoadenosine -5′-phosphosulfate synthetase 2 (PAPSS2) sequence variants” (Mayo Foundation for Medical Education and Research, priority 2001, dated 2007)", "molecules": {"B1": {"name": "wild type: reference human PAPSS2 polypeptide (SEQ ID NO:9, GenBank AF091242), recombinantly expressed in COS-1 cells (protein, listed as Homo sapiens)", "chain": "MSGIKKQKTENQQKSTNVVYQAHHVSRNKRGQVVGTRGGFRGCTVWLTGLSGAGKTTISFALEEYLVSHAIPCYSLDGDNVRHGLNRNLGFSPGDREENIRRIAEVAKLFADAGLVCITSFISPFAKDRENARKIHESAGLPFFEIFVDAPLNICESRDVKGLYKRARAGEIKGFTGIDSDYEKPETPERVLKTNLSTVSDCVHQVVELLQEQNIVPYTIIKDIHELFVPENKLDHVRAEAETLPSLSITKLDLQWVQVLSEGWATPLKGFMREKEYLQVMHFDTLLDDGVINMSIPIVLPVSAEDKTRLEGCSKFVLAHGGRRVAILRDAEFYEHRKEERCSRVWGTTCTKHPHIKMVMESGDWLVGGDLQVLEKIRWNDGLDQYRLTPLELKQKCKEMNADAVFAFQLRNPVHNGHALLMQDTCRRLLERGYKHPVLLLHPLGGWTKDDDVPLDWRMKQHAAVLEEGVLDPKSTIVAIFPSPMLYAGPTEVQWHCRSRMIAGANFYIVGRDPAGMPHPETKKDLYEPTHGGKVLSMAPGLTSVEIIPFRVAAYNKAKKAMDFYDPARHNEFDFISGTRMRKLAREGENPPDGFMAPKAWKVLTDYYRSLEKN"}}, "tested_on": "PAPSS2", "experiment": "Substrate kinetic studies of recombinant PAPSS2 with ATP and Na2SO4", "assay_type": "biochemical, human", "protocol": "To estimate apparent Km values of PAPSS2 for the two reaction cosubstrates, a series of ATP (0.125–4 mM) and Na2SO4 (0.125–16 mM) concentrations were tested with the recombinant allozymes. When ATP was the varied substrate, the concentration of Na2SO4 was 4 mM, and when Na2SO4 was the varied substrate, the concentration of ATP was 1 mM. Blanks for each substrate concentration were included by assaying COS-1 cell cytosol after transfection with empty vector.\nData Analysis: Apparent Km values were calculated by using the method of Wilkinson with a computer program written by Cleland. Wilkinson, Biochem. J., 80:324–332 (1961); and Cleland, Nature, 198:[…] (1963). Statistical comparisons of data were performed by ANOVA with the StatView program, version 4.5 (Abacus Concepts, Inc., Berkeley, Calif.). Apparent Km, S50 and Vmax values for the wild-type and variant PAPSS2 allozymes were compared by the use of unpaired Student's t-test.\nAlterations in amino acid sequence can alter enzyme substrate affinity and/or catalytic efficiency. Decreased activity of the Val291Met allozyme—without a significant alteration in level of enzyme protein—could have resulted from a change in substrate kinetics. Therefore, a series of ATP (0.125–4 mM) and Na2SO4 (0.125–16 mM) concentrations were used to estimate apparent Km values for recombinant wild type PAPSS2 and for the Val291Met variant allozyme. […] ATP concentrations at which 50% maximal velocity was achieved (S50 values) were 0.70 and 0.95 mM for the wild type and variant allozymes, respectively (Table 4). In both cases, the Hill coefficient was greater than 2, […]. In contrast, substrate kinetics of both allozymes for Na2SO4 conformed to Michaelis-Menten predictions (FIG. 5B). […] In summary, decreased activity for the Val1291Met variant appeared to result from an alteration in substrate kinetics, while decreased activity for the Glu10Lys allozyme, in contrast, resulted primarily from a decrease in the quantity of enzyme protein. Because the Val291Met variant was encoded by a construct that contained the most common PAPSS2 nonsynonymous cSNP, these observations could have functional implications for the sulfate conjugation of both endogenous and/or exogenous compounds.", "key": {"[1]": {"conditions": "ATP varied 0.125-4 mM, Na2SO4 4 mM, listed as Wild Type"}}, "data": [{"molecule": "B1", "values": [{"measurement": "S50 for ATP (ATP concentration at which 50% maximal velocity was achieved)", "setting": "ATP varied 0.125-4 mM, Na2SO4 4 mM", "result": 0.70, "unit": "mM"}, {"measurement": "Hill coefficient, ATP", "setting": "[1]", "result": "5.4 ± 0.1"}, {"measurement": "S50 for ATP (ATP concentration at which 50% maximal velocity was achieved)", "setting": "[1]", "result": "0.70 ± 0.01", "unit": "mM"}, {"measurement": "Km", "setting": "apparent Km, Na2SO4 varied 0.125-16 mM, ATP 1 mM", "result": 870, "unit": "µM"}, {"measurement": "Vmax/S50, ATP", "setting": "ratio, wild type = 100, ATP as varied substrate", "result": 100}, {"measurement": "Vmax, ATP", "setting": "relative Vmax, wild type = 100, ATP as varied substrate", "result": 100}, {"measurement": "Vmax, Na2SO4", "setting": "relative Vmax, wild type = 100, Na2SO4 as varied substrate", "result": 100}]}]}
